Read-outs that look alike come from different tables or passages of the source.
B1: CBFβ alone (human core-binding factor β subunit isoform 2) (other)
chain: MGHHHHHHLEVLFQGPPRVVPDQRSKFENEEFFRKLSRECEIKYTGFRDRPHEERQARFQNACRDGRSEIAFVATGTNLSLQFFPASWQGEQRQTPSREYVDLEREAGKVYLKAPMILNGVCVIWKGWIDLQRLDGMGCLEFDEERAQQEDALAQQAFEEARRRTREFEDRDRSHREEMEVRVSQLLAVTGKKTTRP
B2: Cul5(N), human Cullin5 residues 2-384 with V341R and L345D mutations (post 3C cleavage) (other)
chain: GPMHMGGSTSNLLKNKGSLQFEDKWDFMRPIVLKLLRQESVTKQQWFDLFSDVHAVCLWDDKGPAKIHQALKEDILEFIKQAQARVLSHQDDTALLKAYIVEWRKFFTQCDILPKPFCQLEITLMGKQGSNKKSNVEDSIVRKLMLDTWNESIFSNIKNRLQDSAMKLVHAERLGEAFDSQLVIGVRESYVNLCSNPEDKLQIYRDNFEKAYLDSTERFYRTQAPSYLQQNGVQNYMKYADAKLKEEEKRALRYLETRRECNSVEALMECCVNALVTSFKETILAECQGMIKRNETEKLHLMFSLMDKVPNGIEPMLKDLEEHIISAGLADMVAAAETITTDSEKYREQLDTLFNRFSKLVKEAFQDDPRFLTARDKAYKAVVNDATIFK
notes: also called Cul5(2-384)

Key:
[1] = target: T1, VifC/EloB/C ternary complex (HIV-1 HXB2 Vif(95-192) / ElonginB 1-118 / ElonginC 17-112) (HIV-1 HXB2; human, UniProt P69720 95-192; Q15370 2-118; Q15369 18-112); test: ITC at 303.15 K in ITC Buffer A, CBFβ titrated to VifC/EloB/C
[2] = target: T2, Vif/EloB/C/CBFβ quaternary complex (full-length HIV-1 HXB2 Vif(1-192) / ElonginB 1-118 / ElonginC 17 (HIV-1 HXB2; human, UniProt P69720 2-192; Q15370 2-118; P83940 18-112; Q13951 2-182)
[3] = target: T2, Vif/EloB/C/CBFβ quaternary complex …; remark: listed apart in the source
[4] = target: T1, VifC/EloB/C ternary complex (HIV-1 HXB2 …)
[5] = target: T2, Vif/EloB/C/CBFβ quaternary complex …; remark: listed apart in the source
[6] = target: T2, Vif/EloB/C/CBFβ quaternary complex …; remark: listed apart in the source
[7] = target: T1, VifC/EloB/C ternary complex (HIV-1 HXB2 …); remark: listed apart in the source
[8] = target: B1; test: ITC at 303.15 K in ITC Buffer A, Cul5(N) titrated to CBFβ alone
[9] = target: T1, VifC/EloB/C ternary complex (HIV-1 HXB2 …); remark: listed apart in the source
[10] = target: T2, Vif/EloB/C/CBFβ quaternary complex …; remark: listed apart in the source
[11] = target: T1, VifC/EloB/C ternary complex (HIV-1 HXB2 …); remark: listed apart in the source
[12] = target: T2, Vif/EloB/C/CBFβ quaternary complex …; test: ITC at 30 °C, phosphate (ITC buffer B)
[13] = target: T1, VifC/EloB/C ternary complex (HIV-1 HXB2 …); test: ITC at 30 °C, phosphate (ITC buffer B)
[14] = target: T2, Vif/EloB/C/CBFβ quaternary complex …; test: ITC at 303 K, Cul5(N) in syringe, complex in cell, ITC buffer A
[15] = target: T1, VifC/EloB/C ternary complex (HIV-1 HXB2 …); test: as above
[16] = target: T2, Vif/EloB/C/CBFβ quaternary complex …; test: ITC at 30 °C, HEPES (ITC buffer A)
[17] = target: T1, VifC/EloB/C ternary complex (HIV-1 HXB2 …); test: ITC at 30 °C, HEPES (ITC buffer A)
[18] = target: T1, VifC/EloB/C ternary complex (HIV-1 HXB2 …); remark: listed apart in the source
[19] = target: T2, Vif/EloB/C/CBFβ quaternary complex …; remark: listed apart in the source
[20] = target: T2, Vif/EloB/C/CBFβ quaternary complex …; test: ITC at 30 °C, difference of ΔH between ITC buffers A and B
[21] = target: T1, VifC/EloB/C ternary complex (HIV-1 HXB2 …); test: as above

T1 sequence (P69720 95-192, tags left off, chain 1 of 3): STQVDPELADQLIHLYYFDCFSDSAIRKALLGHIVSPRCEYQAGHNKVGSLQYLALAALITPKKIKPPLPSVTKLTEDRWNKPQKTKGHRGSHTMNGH
T1 sequence (Q15370 2-118, tags left off, chain 2 of 3): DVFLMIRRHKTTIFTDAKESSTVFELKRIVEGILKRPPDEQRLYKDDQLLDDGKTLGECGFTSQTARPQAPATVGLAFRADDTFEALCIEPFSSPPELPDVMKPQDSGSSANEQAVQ
T1 sequence (Q15369 18-112, tags left off, chain 3 of 3): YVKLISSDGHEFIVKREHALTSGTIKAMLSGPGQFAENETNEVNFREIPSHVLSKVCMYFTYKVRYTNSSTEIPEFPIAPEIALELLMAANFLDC
T2 sequence (P69720 2-192, tags left off, chain 1 of 3): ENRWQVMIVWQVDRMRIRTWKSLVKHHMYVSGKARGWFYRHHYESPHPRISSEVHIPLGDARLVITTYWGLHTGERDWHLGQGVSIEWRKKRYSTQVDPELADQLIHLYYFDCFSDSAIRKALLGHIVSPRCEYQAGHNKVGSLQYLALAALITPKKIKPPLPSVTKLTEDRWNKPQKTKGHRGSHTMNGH
T2 sequence (Q15370 2-118, tags left off, chain 2 of 3): as the sequence (Q15370 2-118, tags left off, chain 2 of 3) above
T2 sequence (P83940 18-112, tags left off, chain 3 of 3): as the sequence (Q15369 18-112, tags left off, chain 3 of 3) above

B1
binding result [1]: no binding

B2
Kd [2]: 5 nM
N [3]: 1.01
ΔH [3]: -8350
ΔS [3]: 11.2
N [4]: 0.948
ΔH [4]: -6430
ΔS [4]: 7.96
N [5]: 1
ΔH [5]: -10100
ΔS [5]: 4.56
N [6]: 0.943
ΔH [6]: -6310
ΔS [6]: 23
N [7]: 0.887
ΔH [7]: -2250
ΔS [7]: 22.9
binding result [8]: no binding
N [9]: 1.03
ΔH [9]: -5250
ΔS [9]: 12.4
N [10]: 1.01
ΔH [10]: -8350
ΔS [10]: 11.2
N [11]: 0.952
ΔH [11]: -3750
ΔS [11]: 17.4
ΔH [12]: -7.5 kcal/mol
ΔH [13]: -4.4 kcal/mol
-TΔS [14]: -2.8 kcal/mol
ΔG [14]: -11.5 kcal/mol
ΔH [14]: -8.8 kcal/mol
-TΔS [15]: -3.8 kcal/mol
Kd [15]: 327 nM
ΔG [15]: -9 kcal/mol
ΔH [15]: -5.2 kcal/mol
ΔH [16]: -9.2 kcal/mol
ΔH [17]: -5.2 kcal/mol
N [18]: 1.03
ΔH [18]: -5250
ΔS [18]: 12.4
ΔH [19]: -3970
ΔS [19]: 21.7
ΔΔH (HEPES against phosphate buffer) [20]: 1.7 kcal/mol
ΔΔH (HEPES against phosphate buffer) [21]: 0.8 kcal/mol

— patent US20150268247A1 (UNIVERSITY OF ROCHESTER, published 2015)
